Numbered stars: 1 amine (or outer) side, 2 acyl side, 3 side chain; on linkers, the order of the positions; unused ones are H or OH. Bridge positions count the residues as written; N and C are the ends. Side chains are listed from the residue outwards. Ends that are not written are not given here. * marks the point of attachment. C20 diacid = O=C(O)CCCCCCCCCCCCCCCCCCC(=O)*; γGlu = O=C(O)[C@H](CCC(=O)[*:2])N[*:1]
T1: human amylin 3(a) receptor (human calcitonin receptor co-expressed with RAMP-3) (human, UniProt P30988 25-474; O60896 24-148, limits assumed)
T1 sequence (looked up) 1: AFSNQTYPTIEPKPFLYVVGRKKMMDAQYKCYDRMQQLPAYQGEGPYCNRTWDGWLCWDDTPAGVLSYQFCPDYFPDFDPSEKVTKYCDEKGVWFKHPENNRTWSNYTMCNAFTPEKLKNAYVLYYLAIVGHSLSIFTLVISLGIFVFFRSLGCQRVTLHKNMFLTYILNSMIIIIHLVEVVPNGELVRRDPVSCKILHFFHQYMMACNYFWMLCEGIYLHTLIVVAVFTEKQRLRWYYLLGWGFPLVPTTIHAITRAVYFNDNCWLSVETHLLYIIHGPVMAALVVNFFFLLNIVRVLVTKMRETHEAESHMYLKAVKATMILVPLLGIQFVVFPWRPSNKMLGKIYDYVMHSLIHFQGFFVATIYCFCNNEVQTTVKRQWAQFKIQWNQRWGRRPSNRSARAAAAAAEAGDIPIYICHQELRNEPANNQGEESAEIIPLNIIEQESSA
T1 sequence (looked up) 2: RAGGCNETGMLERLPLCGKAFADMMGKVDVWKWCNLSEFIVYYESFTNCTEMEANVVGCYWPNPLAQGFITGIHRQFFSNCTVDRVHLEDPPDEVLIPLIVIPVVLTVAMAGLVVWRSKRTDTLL

T2: human calcitonin receptor (human, UniProt P30988 25-474)
T2 sequence (looked up): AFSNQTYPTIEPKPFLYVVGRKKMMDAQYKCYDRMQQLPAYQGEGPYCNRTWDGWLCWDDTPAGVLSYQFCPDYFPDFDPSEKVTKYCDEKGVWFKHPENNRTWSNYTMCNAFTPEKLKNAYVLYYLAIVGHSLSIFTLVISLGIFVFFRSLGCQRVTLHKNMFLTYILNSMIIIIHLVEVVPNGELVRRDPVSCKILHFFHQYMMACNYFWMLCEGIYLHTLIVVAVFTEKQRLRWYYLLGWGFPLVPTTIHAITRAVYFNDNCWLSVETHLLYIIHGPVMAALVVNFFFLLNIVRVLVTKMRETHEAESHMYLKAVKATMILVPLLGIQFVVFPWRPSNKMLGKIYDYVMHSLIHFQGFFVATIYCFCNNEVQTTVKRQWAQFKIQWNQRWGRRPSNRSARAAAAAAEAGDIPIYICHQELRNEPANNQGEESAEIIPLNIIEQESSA

B1: N^-1-[(4S)-4-carboxy-4-(19-carboxynonadecanoylamino)butanoyl]-Gly[Arg1,His14,Arg17,Pro21,Pro27,His34]-h-amylin (peptide)
peptide: {C20 diacid-γGlu}-GRCNTATCATQRLAHFLRHSSPNFGAIPSSTNVGHNTY-NH2
modifications: disulfide 3-8
SMILES: CC[C@H](C)[C@H](NC(=O)[C@H](C)NC(=O)CNC(=O)[C@H](Cc1ccccc1)NC(=O)[C@H](CC(N)=O)NC(=O)[C@@H]1CCCN1C(=O)[C@H](CO)NC(=O)[C@H](CO)NC(=O)[C@H](Cc1c[nH]cn1)NC(=O)[C@H](CCCNC(=N)N)NC(=O)[C@H](CC(C)C)NC(=O)[C@H](Cc1ccccc1)NC(=O)[C@H](Cc1c[nH]cn1)NC(=O)[C@H](C)NC(=O)[C@H](CC(C)C)NC(=O)[C@H](CCCNC(=N)N)NC(=O)[C@H](CCC(N)=O)NC(=O)[C@@H](NC(=O)[C@H](C)NC(=O)[C@@H]1CSSC[C@H](NC(=O)[C@H](CCCNC(=N)N)NC(=O)CNC(=O)CC[C@H](NC(=O)CCCCCCCCCCCCCCCCCCC(=O)O)C(=O)O)C(=O)N[C@@H](CC(N)=O)C(=O)N[C@@H]([C@@H](C)O)C(=O)N[C@@H](C)C(=O)N[C@@H]([C@@H](C)O)C(=O)N1)[C@@H](C)O)C(=O)N1CCC[C@H]1C(=O)N[C@@H](CO)C(=O)N[C@@H](CO)C(=O)N[C@H](C(=O)N[C@@H](CC(N)=O)C(=O)N[C@H](C(=O)NCC(=O)N[C@@H](Cc1c[nH]cn1)C(=O)N[C@@H](CC(N)=O)C(=O)N[C@H](C(=O)N[C@@H](Cc1ccc(O)cc1)C(N)=O)[C@@H](C)O)C(C)C)[C@@H](C)O
notes: also called compound 100
B2: N^-1-[(4S)-4-carboxy-4-(19-carboxynonadecanoylamino)butanoyl]-Gly[Arg1,Ala14,Arg17,Pro21,Pro27,His34]-h-amylin (peptide)
peptide: {C20 diacid-γGlu}-GRCNTATCATQRLAAFLRHSSPNFGAIPSSTNVGHNTY-NH2
modifications: disulfide 3-8
SMILES: CC[C@H](C)[C@H](NC(=O)[C@H](C)NC(=O)CNC(=O)[C@H](Cc1ccccc1)NC(=O)[C@H](CC(N)=O)NC(=O)[C@@H]1CCCN1C(=O)[C@H](CO)NC(=O)[C@H](CO)NC(=O)[C@H](Cc1c[nH]cn1)NC(=O)[C@H](CCCNC(=N)N)NC(=O)[C@H](CC(C)C)NC(=O)[C@H](Cc1ccccc1)NC(=O)[C@H](C)NC(=O)[C@H](C)NC(=O)[C@H](CC(C)C)NC(=O)[C@H](CCCNC(=N)N)NC(=O)[C@H](CCC(N)=O)NC(=O)[C@@H](NC(=O)[C@H](C)NC(=O)[C@@H]1CSSC[C@H](NC(=O)[C@H](CCCNC(=N)N)NC(=O)CNC(=O)CC[C@H](NC(=O)CCCCCCCCCCCCCCCCCCC(=O)O)C(=O)O)C(=O)N[C@@H](CC(N)=O)C(=O)N[C@@H]([C@@H](C)O)C(=O)N[C@@H](C)C(=O)N[C@@H]([C@@H](C)O)C(=O)N1)[C@@H](C)O)C(=O)N1CCC[C@H]1C(=O)N[C@@H](CO)C(=O)N[C@@H](CO)C(=O)N[C@H](C(=O)N[C@@H](CC(N)=O)C(=O)N[C@H](C(=O)NCC(=O)N[C@@H](Cc1c[nH]cn1)C(=O)N[C@@H](CC(N)=O)C(=O)N[C@H](C(=O)N[C@@H](Cc1ccc(O)cc1)C(N)=O)[C@@H](C)O)C(C)C)[C@@H](C)O
B3: N^ε1-[(4S)-4-carboxy-4-[[(4S)-4-carboxy-4-(19-carboxynonadecanoylamino)butanoyl]amino]butanoyl]-[Glu14,Arg17,Pro21,Pro27,Arg35]-h-amylin (peptide)
peptide: K([γGlu-γGlu-C20 diacid])CNTATCATQRLAEFLRHSSPNFGAIPSSTNVGSRTY-NH2
modifications: disulfide 2-7; N-terminus assumed
SMILES: CC[C@H](C)[C@H](NC(=O)[C@H](C)NC(=O)CNC(=O)[C@H](Cc1ccccc1)NC(=O)[C@H](CC(N)=O)NC(=O)[C@@H]1CCCN1C(=O)[C@H](CO)NC(=O)[C@H](CO)NC(=O)[C@H](Cc1c[nH]cn1)NC(=O)[C@H](CCCNC(=N)N)NC(=O)[C@H](CC(C)C)NC(=O)[C@H](Cc1ccccc1)NC(=O)[C@H](CCC(=O)O)NC(=O)[C@H](C)NC(=O)[C@H](CC(C)C)NC(=O)[C@H](CCCNC(=N)N)NC(=O)[C@H](CCC(N)=O)NC(=O)[C@@H](NC(=O)[C@H](C)NC(=O)[C@@H]1CSSC[C@H](NC(=O)[C@@H](N)CCCCNC(=O)CC[C@H](NC(=O)CC[C@H](NC(=O)CCCCCCCCCCCCCCCCCCC(=O)O)C(=O)O)C(=O)O)C(=O)N[C@@H](CC(N)=O)C(=O)N[C@@H]([C@@H](C)O)C(=O)N[C@@H](C)C(=O)N[C@@H]([C@@H](C)O)C(=O)N1)[C@@H](C)O)C(=O)N1CCC[C@H]1C(=O)N[C@@H](CO)C(=O)N[C@@H](CO)C(=O)N[C@H](C(=O)N[C@@H](CC(N)=O)C(=O)N[C@H](C(=O)NCC(=O)N[C@@H](CO)C(=O)N[C@@H](CCCNC(=N)N)C(=O)N[C@H](C(=O)N[C@@H](Cc1ccc(O)cc1)C(N)=O)[C@@H](C)O)C(C)C)[C@@H](C)O
notes: also called compound 89
B4: N^ε1-[(4S)-4-carboxy-4-[[(4S)-4-carboxy-4-(19-carboxynonadecanoylamino)butanoyl]amino]butanoyl]-[Glu14,Arg17,Pro21,Pro27,His34,Glu35]-h-amylin (peptide)
peptide: K([γGlu-γGlu-C20 diacid])CNTATCATQRLAEFLRHSSPNFGAIPSSTNVGHETY-NH2
modifications: disulfide 2-7; N-terminus assumed
SMILES: CC[C@H](C)[C@H](NC(=O)[C@H](C)NC(=O)CNC(=O)[C@H](Cc1ccccc1)NC(=O)[C@H](CC(N)=O)NC(=O)[C@@H]1CCCN1C(=O)[C@H](CO)NC(=O)[C@H](CO)NC(=O)[C@H](Cc1c[nH]cn1)NC(=O)[C@H](CCCNC(=N)N)NC(=O)[C@H](CC(C)C)NC(=O)[C@H](Cc1ccccc1)NC(=O)[C@H](CCC(=O)O)NC(=O)[C@H](C)NC(=O)[C@H](CC(C)C)NC(=O)[C@H](CCCNC(=N)N)NC(=O)[C@H](CCC(N)=O)NC(=O)[C@@H](NC(=O)[C@H](C)NC(=O)[C@@H]1CSSC[C@H](NC(=O)[C@@H](N)CCCCNC(=O)CC[C@H](NC(=O)CC[C@H](NC(=O)CCCCCCCCCCCCCCCCCCC(=O)O)C(=O)O)C(=O)O)C(=O)N[C@@H](CC(N)=O)C(=O)N[C@@H]([C@@H](C)O)C(=O)N[C@@H](C)C(=O)N[C@@H]([C@@H](C)O)C(=O)N1)[C@@H](C)O)C(=O)N1CCC[C@H]1C(=O)N[C@@H](CO)C(=O)N[C@@H](CO)C(=O)N[C@H](C(=O)N[C@@H](CC(N)=O)C(=O)N[C@H](C(=O)NCC(=O)N[C@@H](Cc1c[nH]cn1)C(=O)N[C@@H](CCC(=O)O)C(=O)N[C@H](C(=O)N[C@@H](Cc1ccc(O)cc1)C(N)=O)[C@@H](C)O)C(C)C)[C@@H](C)O
B5: N^ε1-[(4S)-4-carboxy-4-[[(4S)-4-carboxy-4-(19-carboxynonadecanoylamino)butanoyl]amino]butanoyl]-[His14,Arg17,Pro21,Pro27]-h-amylin (peptide)
peptide: K([γGlu-γGlu-C20 diacid])CNTATCATQRLAHFLRHSSPNFGAIPSSTNVGSNTY-NH2
modifications: disulfide 2-7; N-terminus assumed
SMILES: CC[C@H](C)[C@H](NC(=O)[C@H](C)NC(=O)CNC(=O)[C@H](Cc1ccccc1)NC(=O)[C@H](CC(N)=O)NC(=O)[C@@H]1CCCN1C(=O)[C@H](CO)NC(=O)[C@H](CO)NC(=O)[C@H](Cc1c[nH]cn1)NC(=O)[C@H](CCCNC(=N)N)NC(=O)[C@H](CC(C)C)NC(=O)[C@H](Cc1ccccc1)NC(=O)[C@H](Cc1c[nH]cn1)NC(=O)[C@H](C)NC(=O)[C@H](CC(C)C)NC(=O)[C@H](CCCNC(=N)N)NC(=O)[C@H](CCC(N)=O)NC(=O)[C@@H](NC(=O)[C@H](C)NC(=O)[C@@H]1CSSC[C@H](NC(=O)[C@@H](N)CCCCNC(=O)CC[C@H](NC(=O)CC[C@H](NC(=O)CCCCCCCCCCCCCCCCCCC(=O)O)C(=O)O)C(=O)O)C(=O)N[C@@H](CC(N)=O)C(=O)N[C@@H]([C@@H](C)O)C(=O)N[C@@H](C)C(=O)N[C@@H]([C@@H](C)O)C(=O)N1)[C@@H](C)O)C(=O)N1CCC[C@H]1C(=O)N[C@@H](CO)C(=O)N[C@@H](CO)C(=O)N[C@H](C(=O)N[C@@H](CC(N)=O)C(=O)N[C@H](C(=O)NCC(=O)N[C@@H](CO)C(=O)N[C@@H](CC(N)=O)C(=O)N[C@H](C(=O)N[C@@H](Cc1ccc(O)cc1)C(N)=O)[C@@H](C)O)C(C)C)[C@@H](C)O
notes: also called compound 92
B6: N^ε1-[(4S)-4-carboxy-4-[[(4S)-4-carboxy-4-(19-carboxynonadecanoylamino)butanoyl]amino]butanoyl]-[Glu14,Arg17,Pro21,Pro27,Pro34,Arg35]-h-amylin (peptide)
peptide: K([γGlu-γGlu-C20 diacid])CNTATCATQRLAEFLRHSSPNFGAIPSSTNVGPRTY-NH2
modifications: disulfide 2-7; N-terminus assumed
SMILES: CC[C@H](C)[C@H](NC(=O)[C@H](C)NC(=O)CNC(=O)[C@H](Cc1ccccc1)NC(=O)[C@H](CC(N)=O)NC(=O)[C@@H]1CCCN1C(=O)[C@H](CO)NC(=O)[C@H](CO)NC(=O)[C@H](Cc1c[nH]cn1)NC(=O)[C@H](CCCNC(=N)N)NC(=O)[C@H](CC(C)C)NC(=O)[C@H](Cc1ccccc1)NC(=O)[C@H](CCC(=O)O)NC(=O)[C@H](C)NC(=O)[C@H](CC(C)C)NC(=O)[C@H](CCCNC(=N)N)NC(=O)[C@H](CCC(N)=O)NC(=O)[C@@H](NC(=O)[C@H](C)NC(=O)[C@@H]1CSSC[C@H](NC(=O)[C@@H](N)CCCCNC(=O)CC[C@H](NC(=O)CC[C@H](NC(=O)CCCCCCCCCCCCCCCCCCC(=O)O)C(=O)O)C(=O)O)C(=O)N[C@@H](CC(N)=O)C(=O)N[C@@H]([C@@H](C)O)C(=O)N[C@@H](C)C(=O)N[C@@H]([C@@H](C)O)C(=O)N1)[C@@H](C)O)C(=O)N1CCC[C@H]1C(=O)N[C@@H](CO)C(=O)N[C@@H](CO)C(=O)N[C@H](C(=O)N[C@@H](CC(N)=O)C(=O)N[C@H](C(=O)NCC(=O)N1CCC[C@H]1C(=O)N[C@@H](CCCNC(=N)N)C(=O)N[C@H](C(=O)N[C@@H](Cc1ccc(O)cc1)C(N)=O)[C@@H](C)O)C(C)C)[C@@H](C)O
notes: also called compound 110

Experiments:
[1] = biological target: T1, human amylin 3(a) receptor (human …); experiment: cell-based or functional assay
[2] = biological target: T2, human calcitonin receptor; experiment: cell-based or functional assay

| Binder | hAmylin-R funct. EC50 [1] | Ratio hCT/hAmylin funct. [2] | hCTR funct. EC50 [2] |
| --- | --- | --- | --- |
| B1 | 253 pM | 6.8 | 1730 pM |
| B2 | 109 pM | 4.9 | 537 pM |
| {C20 diacid-γGlu}-GRCNTATCATQRLAAFLRHSSPNFGAIPSSTNVGPNTY-NH2 (disulfide 3-8) | 70 pM | 2.1 | 148 pM |
| B3 | 404 pM | 27.8 | 11200 pM |
| B4 | 445 pM | 15.8 | 7050 pM |
| B5 | 85 pM | 28 | 2380 pM |
| B6 | 278 pM | 29.3 | 8160 pM |
